Data: patent US20230218519A1, “FLUID GEL COMPOSITIONS” (The University of Birmingham, priority 2020, published 2023)

How the values were obtained:
[1] = Release assay from PEG-DA fluid gel (trans-well, UV/Vis); type: physicochemical; conditions: 3% v/v PEG-DA fluid gel (Example 5.3, 500 rpm), into PBS at 37° C., 5 hrs
Description: • Active amounts: […] • Standard concentrations of active in PBS were prepared. • Standards were pipetted into a quartz cuvette (1 mm pathlength). • UV/Vis spectroscopy was used to measure absorbance between 200 and 700 nm wavelength. • Curves were plotted and used to determine standard curves which were used to determine concentrations. • 0.5 ml PBS was added to the well of a 24 well plate. • The PBS was incubated at 37° C. to equilibrate. • 0.1 ml of the fluid gel containing active was placed in a trans-well insert. • The trans-well insert was placed into a well containing PBS. • After a given time period the trans-well insert was removed and placed in a fresh well of PBS. • The release media was then removed and analysed using […] spectroscopy. Concentrations were derived from the standard curves and cumulative release plotted as a function of time.

fibrin gel = assay: Matrix breakdown assay (fibrin gel); type: biochemical; conditions: fibrin gel 8.5 mg/ml, 60° C., images at various timepoints
Description: • Add proteinase K (10 mg) to PBS to make a total volume of 1 ml. • Mix well on a vortex mixer until dissolved.
• Add 0.9 ml of 3% v/v PEG-DA fluid gel prepared according to Example 5.3 to an Eppendorf. • To each gel add 0.1 ml of active in PBS. • Mix well using a vortex mixer. • Refrigerate for 24 hours before testing.
• 0.5 ml of fibrin gel (8.5 mg/ml) was formed in the wells of a 24 well plate. • 0.5 ml of PBS was added to each well. • 0.1 ml of fluid gel containing active was added to a trans-well insert and placed above the fibrin gel. • Samples were incubated at 60° C. to activate the proteinase K. • Images were taken at various timepoints and compared to (a) the control wells containing only fibrin gel+PBS; and (b) wells containing fibrin gel+proteinase k (no fluid gel carrier).

B1: proteinase K only: extracellular matrix remodelling agent, a proteinase (protein, UniProt P06873 106-384, looked up)
Proteinase K: AAQTNAPWGLARISSTSPGTSTYYYDESAGQGSCVYVIDTGIEASHPEFEGRAQMVKTYYYSSRDGNGHGTHCAGTVGSRTYGVAKKTQLFGVKVLDDNGSGQYSTIIAGMDFVASDKNNRNCPKGVVASLSLGGGYSSSVNSAAARLQSSGVMVAVAAGNNNADARNYSPASEPSVCTVGASDRYDRRSSFSNYGSVLDIFGPGTSILSTWIGGSTRSISGTSMATPHVAGLAAYLMTLGKTTAASACRYIADTANKGDLSNIPFGTVNLLAYNNYQA
[1]
  release of active agent from fluid gel: able to release
Fibrin gel
  fibrin gel break down: faster
